Tests used:
[1] = tested on: HeLa Kyoto; assay: solubility change mitosis vs G1/S (difference of NP-40 vs SDS log2 ratios) (log2 ratio difference); higher = more soluble in mitosis
[2] = tested on: HeLa Kyoto; assay: melting temperature (median over replicates), in situ; higher = more thermally stable
[3] = tested on: HeLa Kyoto; assay: thermal stability score vs G1/S (z-score of summed log2 fold changes over temperatures); higher = more thermally stable than in G1/S
[4] = tested on: HeLa Kyoto; assay: solubility in G1/S (NP-40 vs SDS abundance) (log2 ratio); higher = more soluble; conditions: cell cycle stage: G1/S
[5] = cell cycle stage: early G1 (4.5 h after nocodazole release)
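For melting temperature (median over replicates), in situ in this document: HeLa Kyoto cells synchronized by double thymidine or nocodazole block, proteins quantified by TMT10plex mass spectrometry, three independent biological replicates.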
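For solubility change mitosis vs G1/S (difference of NP-40 vs SDS log2 ratios) in this document: synchronized HeLa Kyoto cells (double thymidine block for G1/S, nocodazole release for mitosis), protein amounts in NP-40 versus SDS lysates quantified by mass spectrometry, three biological replicates.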
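For solubility in G1/S (NP-40 vs SDS abundance) in this document: HeLa Kyoto cells arrested at G1/S by double thymidine block, proteins quantified by TMT10plex mass spectrometry in mild NP-40 versus SDS extracts, three biological replicates.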
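For thermal stability score vs G1/S (z-score of summed log2 fold changes over temperatures) in this document: synchronized HeLa Kyoto cells, proteins quantified by TMT10plex mass spectrometry, three biological replicates, mitosis taken 0.5 h after nocodazole release, G1/S directly after double thymidine block.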

Chain of PSME2 (chain, as listed by the source): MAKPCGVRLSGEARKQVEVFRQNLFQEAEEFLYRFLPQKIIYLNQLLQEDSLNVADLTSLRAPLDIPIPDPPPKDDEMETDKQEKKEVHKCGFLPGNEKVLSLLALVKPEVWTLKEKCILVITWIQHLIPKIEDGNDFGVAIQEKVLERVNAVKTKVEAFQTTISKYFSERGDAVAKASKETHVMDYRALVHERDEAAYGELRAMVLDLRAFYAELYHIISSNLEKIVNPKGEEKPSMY

Row | Substance | solubility change mitosis (log2) [1] | melting temperature ([2]; cell cycle stage: G1/S) [°C] | melting temperature ([2]; cell cycle stage: mitosis) [°C] | thermal stability score [3, 5] | thermal stability score ([3]; cell cycle stage: mitosis) | solubility in G1/S (log2) [4]
1 | MSKPPPKPVKPGQVKVFRALYTFEPRTPDELYFEEGDIIYITDMSDTNWWKGTSKGRTGLIPSNYVAEQAESIDNPLHEAAKRGNLSWLRECLDNRVGVNGLDKAGSTALYWACHGGHKDIVEMLFTQPNIELNQQNKLGDTALHAAAWKGYADIVQLLLAKGARTDLRNIEKKLAFDMATNAACASLLKKKQGTDAVRTLSNAEDYLDDEDSD [OSTF1] | -0.158 | 49.3 | 50.7 | -0.239 | 0.339 | 0.545
2 | MSTPAVPQDLQLPPSQRAQSAFKEQRRQKLKEHLLRRKTLFAYKQENEMLSSSRDQRVVTSEDQVQEGTKVLKLKTKMADKENMKRPAESKNNTVVGKHCIPLKPSNELTNSTVVIDTHKPKDSNQTPHLLLTEDDPQSQHMTLSQAFHLKNNSKKKQMTTEKQKQDANMPKKPVLGSYRGQIVQSKINSFRKPLQVKDESSAATKKLSATIPKATKPQPVNTSSVTVKSNRSSNMTATTKFVSTTSQNTQLVRPPIRSHHSNTRDTVKQGISRTSANVTIRKGPHEKELLQSKTALSSVKTSSSQGIIRNKTLSRSIASEVIARPASLSNDKLMEKSEPVDQRRHTAGKAIVDSRSAQPKETSEERKARLSEWKAGKGRVLKRPPNSVVTQHEPAGQNEKPVGSFWTTMAEEDEQRLFTEKVNNTFSECLNLINEGCPKEDILVTLNDLIKNIPDAKKLVKYWICLALIEPITSPIENIIAIYEKAILAGAQPIEEMRHTIVDILTMKSQEKANLGENMEKSCASKEEVKEVSIEDTGVDVDPEKLEMESKLHRNLLFQDCEKEQDNKTKDPTHDVKTPNTETRTSCLIKYNVSTTPYLQSVKKKVQFDGTNSAFKELKFLTPVRRSRRLQEKTSKLPDMLKDHYPCVSSLEQLTELGRETDAFVCRPNAALCRVYYEADTT [CKAP2] | 0.657 | 51 | 49.3 | -1.31 | -0.259 | -0.733
3 | MEADKDDTQQILKEHSPDEFIKDEQNKGLIDEITKKNIQLKKEIQKLETELQEATKEFQIKEDIPETKMKFLSVETPENDSQLSNISCSFQVSSKVPYEIQKGQALITFEKEEVAQNVVSMSKHHVQIKDVNLEVTAKPVPLNSGVRFQVYVEVSKMKINVTEIPDTLREDQMRDKLELSFSKSRNGGGEVDRVDYDRQSGSAVITFVEIGVADKILKKKEYPLYINQTCHRVTVSPYTEIHLKKYQIFSGTSKRTVLLTGMEGIQMDEEIVEDLINIHFQRAKNGGGEVDVVKCSLGQPHIAYFEE [NMI] | -0.0719 | 55.4 | 55.7 | -1.52 | -4.03 | 0.127
4 | PSME2 | 0.0782 | 52.8 | 53.8 | -0.487 | 2.4 | 0.142
5 | MESYDIIANQPVVIDNGSGVIKAGFAGDQIPKYCFPNYVGRPKHMRVMAGALEGDLFIGPKAEEHRGLLTIRYPMEHGVVRDWNDMERIWQYVYSKDQLQTFSEEHPVLLTEAPLNPSKNREKAAEVFFETFNVPALFISMQAVLSLYATGRTTGVVLDSGDGVTHAVPIYEGFAMPHSIMRVDIAGRDVSRYLRLLLRKEGVDFHTSAEFEVVRTIKERACYLSINPQKDEALETEKVQYTLPDGSTLDVGPARFRAPELLFQPDLVGDESEGLHEVVAFAIHKSDMDLRRTLFANIVLSGGSTLFKGFGDRLLSEVKKLAPKDIKIKISAPQERLYSTWIGGSILASLDTFKKMWVSKKEYEEDGSRAIHRKTF [ACTR1B] | -0.178 | 54 | 53.1 | -0.612 | -1.12 | -0.021
6 | MFRKARRVNVRKRNDSEEEERERDEEQEPPPLLPPPGTGEEAGPGGGDRAPGGESLLGPGPSPPSALTPGLGAEAGGGFPGGAEPGNGLKPRKRPRENKEVPRASLLSFQDEEEENEEVFKVKKSSYSKKIVKLLKKEYKEDLEKSKIKTELNSSAESEQPLDKTGHVKDTNQEDGVIISEHGEDEMDMESEKEEEKPKTGGAFSNALSSLNVLRPGEIPDAAFIHAARKKRQMARELGDFTPHDNEPGKGRLVREDENDASDDEDDDEKRRIVFSVKEKSQRQKIAEEIGIEGSDDDALVTGEQDEELSRWEQEQIRKGINIPQVQASQPAEVNMYYQNTYQTMPYGSSYGIPYSYTAYGSSDAKSQKTDNTVPFKTPSNEMTPVTIDLVKKQLKDRLDSMKELHKTNRQQHEKHLQSRVDSTRAIERLEGSSGGIGERYKFLQEMRGYVQDLLECFSEKVPLINELESAIHQLYKQRASRLVQRRQDDIKDESSEFSSHSNKALMAPNLDSFGRDRALYQEHAKRRIAEREARRTRRRQAREQTGKMADHLEGLSSDDEETSTDITNFNLEKDRISKESGKVFEDVLESFYSIDCIKSQFEAWRSKYYTSYKDAYIGLCLPKLFNPLIRLQLLTWTPLEAKCRDFENMLWFESLLFYGCEEREQEKDDVDVALLPTIVEKVILPKLTVIAENMWDPFSTTQTSRMVGITLKLINGYPSVVNAENKNTQVYLKALLLRMRRTLDDDVFMPLYPKNVLENKNSGPYLFFQRQFWSSVKLLGNFLQWYGIFSNKTLQELSIDGLLNRYILMAFQNSEYGDDSIKKAQNVINCFPKQWFMNLKGERTISQLENFCRYLVHLADTIYRNSIGCSDVEKRNARENIKQIVKLLASVRALDHAMSVASDHNVKEFKSLIEGK [PAXBP1] | 0.153 | 48.6 | 49 | 0.626 | 1.5 | -0.54
7 | MAPLLLQLAVLGAALAAAALVLISIVAFTTATKMPALHRHEEEKFFLNAKGQKETLPSIWDSPTKQLSVVVPSYNEEKRLPVMMDEALSYLEKRQKRDPAFTYEVIVVDDGSKDQTSKVAFKYCQKYGSDKVRVITLVKNRGKGGAIRMGIFSSRGEKILMADADGATKFPDVEKLEKGLNDLQPWPNQMAIACGSRAHLEKESIAQRSYFRTLLMYGFHFLVWFLCVKGIRDTQCGFKLFTREAASRTFSSLHVERWAFDVELLYIAQFFKIPIAEIAVNWTEIEGSKLVPFWSWLQMGKDLLFIRLRYLTGAWRLEQTRKMN [ALG5] | -0.147 | 53 | 53.8 | -0.322 | -1.32 | -0.514
8 | MLRLVPTGARAIVDMSYARHFLDFQGSAIPQAMQKLVVTRLSPNFREAVTLSRDCPVPLPGDGDLLVRNRFVGVNASDINYSAGRYDPSVKPPFDIGFEGIGEVVALGLSASARYTVGQAVAYMAPGSFAEYTVVPASIATPVPSVKPEYLTLLVSGTTAYISLKELGGLSEGKKVLVTAAAGGTGQFAMQLSKKAKCHVIGTCSSDEKSAFLKSLGCDRPINYKTEPVGTVLKQEYPEGVDVVYESVGGAMFDLAVDALATKGRLIVIGFISGYQTPTGLSPVKAGTLPAKLLKKSASVQGFFLNHYLSKYQAAMSHLLEMCVSGDLVCEVDLGDLSPEGRFTGLESIFRAVNYMYMGKNTGKIVVELPHSVNSKL [ZADH2] | -0.199 | 52.9 | 53.5 | 0.549 | 1.57 | 0.198
